# Laboratory results as given in the DeepSol protein solubility set.
# Experiment: soluble on expression in E. coli; label from the status in PepcDB or PDB records
row,Sequence,soluble on expression in E. coli
1,MHHHHHHSSGVDLGTENLYFQSMAQADIALIGLAVMGQNLILNMNDHGFVVCAFNRTVSKVDDFLANEAKGTKVVGAQSLKEMVSKLKKPRRIILLVKAGQAVDDFIEKLVPLLDTGDIIIDGGNSEYRDTTRRCRDLKAKGILFVGSGVSGGEEGARYGPSLMPGGNKEAWPHIKTIFQGIAAKVGTGEPCCDWVGDEGAGHFVKMVHNGIEYGDMQLICEAYHLMKDVLGMAQDEMAQAFEDWNKTELDSFLIEITANILKFQDTDGKHLLPKIRDSAGQKGTGKWTAISALEYGVPVTLIGEAVFARCLSSLKDERIQASKKLKGPQKFQFDGDKKSFLEDIRKALYASKIISYAQGFMLLRQAATEFGWTLNYGGIALMWRGGCIIRSVFLGKIKDAFDRNPELQNLLLDDFFKSAVENCQDSWRRAVSTGVQAGIPMPCFTTALSFYDGYRHEMLPASLIQAQRDYFGAHTYELLAKPGQFIHTNWTGHGGTVSSSSYNA,soluble
2,SGNLDDNKFTWVIKNVPTLNSDMLFSNYFVIGGCSWRVVAHSKENNFKESLSLTLIVAEDSAQKMGCGWSRYAKIIFTLVNQISEILSQRIETMFDQKSSVFSSETMFSIGKFDEHFAGFIVNGEIKIVVEFLEIIDKLVLSKESNPPFKKTKLNNDGEVSKDLIREVPVIMESIVVNGFHVLPSQVEFVKRIFEKHPDVAKEFRPTNRIVKTAYMNVLLSLIETLRQSPREISKNDLDGACGLLRSMKEAGFKLDWLEKKLNEVLEKKEKEESYETRMREIEEEMKDLKAKALDVGAPLRLDDVV,not soluble
3,MGSDKIHHHHHHLAVLRYTVTNTGQLSVSGSWSASVKHPLIAVVFSSGRPDAPTLGKILKQLKKRYGIKNFNAVGHSAGSAAWANWAVTPDKQGMPQLRRLITIAGPFNGFPGMPGMNGGQHITLAKDGRPNVMSDRYKPLYDNRRYFPKTAAVLNLFGNLGKGTDGRVPVNSARSLRYVVAGRAKSYTEREITNSKAQHSQLHEHNPLVNRYLYEFLNNGKITN,not soluble
4,MAHHHHHHMGKKKVGEIQRSEDFCIPAGDRDANSALPAEEWPLLLKNYDKMNVRSTHFTLLECGWSPLRRPLAEYIKYGMINMDKPSNPSSHEVVSWIKRILKCDKTGHAGTLDPKVTGALIICTDRATRLVKSQQNAGKTYIGVLRLHDTVSQKKVDAALQRLTGPCFQRPPLIAAVKRQLRIRNIYSNQLIEYDKHRHLAVFETHCEAGTYIRTLCVHVGLILGAGGHMEELRRIRTGVITENDHLSTMHDVMDAQWLYENEKDDTYLRRVILPCEYLLSNHKRIVVKDSAVNAVCYGAKLMIPGLARFDNGIERDDVVVLMTTKGEAIALAYAEMTTSQMASVDHGIVARSKRVIMDRDTYPRRWGLGPIAVKKRSMMKDGLLDKYGRPQSNTPSDWFYVDYGGVKTNAEGVQYGQAPSKVGGVKRQRVPDSDDD,not soluble
5,MGSSHHHHHHSSGLVPRGSHMGLQDYQRLHKESIEDPAKFFGSKATQFLNWSKPFDKVFIPDPKTGRPSFQNNAWFLNGQLNACYNCVDRHALKTPNKKAIIFEGDEPGQGYSITYKELLEEVCQVAQVLTYSMGVRKGDTVAVYMPMVPEAIITLLAISRIGAIHSVVFAGFSSNSLRDRINDGDSKVVITTDESNRGGKVIETKRIVDDALRETPGVRHVLVYRKTNNPSVAFHAPRDLDWATEKKKYKTYYPCTPVDSEDPLFLLYTSGSTGAPKGVQHSTAGYLLGALLTMRYTFDTHQEDVFFTAGDIGWITGHTYVVYGPLLYGCATLVFEGTPAYPNYSRYWDIIDEHKVTQFYVAPTALRLLKRAGDSYIENHSLKSLRCLGSVGEPIAAEVWEWYSEKIGKNEIPIVDTYWQTESGSHLVTPLAGGVTPMKPGSASFPFFGIDAVVLDPNTGEELNTSHAEGVLAVKAAWPSFARTIWKNHDRYLDTYLNPYPGYYFTGDGAAKDKDGYIWILGRVDDVVNVSGHRLSTAEIEAAIIEDPIVAECAVVGFNDDLTGQAVAAFVVLKNKSSWSTATDDELQDIKKHLVFTVRKDIGPFAAPKLIILVDDLPKTRSGKIMRRILRKILAGESDQLGDVSTLSNPGIVRHLIDSVKL,soluble
6,MSKAAKKKSSKKRSGSEAAQFDQKTIQEFKEAFGIMDQNKDGIIDKSDLKDLYASMGQIAPDSQIDAMIKEASGPINFTVFLTLFGERLTGTDPEATIVGAFAMFDKKDCGKIKEDDLIKILQNKRGEPLDEDEVKAMYKGKPPIEGGEVDYKAFAHLITTGAQDELASA,not soluble
7,MSLREIVLINITGVDRPGLTAAITGVLAQGGVNILDIGQAVIHDTLSFGILVEIPDTVQGSSVLKDILFTAYKLDQQVRFTAVSEEGYQHWVEGQGKARHIVTLLTRKVTAEQLQCVSAITAKYGLNIDQIDRLSGRMPLDTPADKGKGCIEFTVRGEPADPKAMQAEFLAVAQELNVDIAFQQDSLFRRNRRLAVFDMDSTLIEAEVIDELAKAAGVGEQVAEITERAMRGELDFSESFKERLALLKGLDVGVLDEIGASLRLTEGAETLFSELKRLGYKTAILSGGFTYFAKQLQAKLGIDYVYANELEVVDGKVTGVAVEPIVNAQRKADLLRELAHKEGLSLEQTIAVGDGANDLPMLAIAGLGVAFRAKPLVKQSAKQAISTLGLDGVLYLLGEGHHHHHH,soluble
8,MPPKVTSELLRQLRQAMRNSEYVTEPIQAYIIPSGDAHQSEYIAPCDCRRAFVSGFDGSAGTAIITEEHAAMWTDGRYFLQAAKQMDSNWTLMKMGLKDTPTQEDWLVSVLPEGSRVGVDPLIIPTDYWKKMAKVLRSAGHHLIPVKENLVDKIWTDRPERPCKPLLTLGLDYTGISWKDKVADLRLKMAERNVMWFVVTALDEIAWLFNLRGSDVEHNPVFFSYAIIGLETIMLFIDGDRIDAPSVKEHLLLDLGLEAEYRIQVHPYKSILSELKALCADLSPREKVWVSDKASYAVSETIPKDHRCCMPYTPICIAKAVKNSAESEGMRRAHIKDAVALCELFNWLEKEVPKGGVTEISAADKAEEFRRQQADFVDLSFPTISSTGPTGAIIHYAPVPETNRTLSLDEVYLIDSGAQYKDGTTDVTRTMHFETPTAYEKECFTYVLKGHIAVSAAVFPTGTKGHLLDSFARSALWDSGLDYLHGTGHGVGSFLNVHEGPCGISYKTFSDEPLEAGMIVTDEPGYYEDGAFGIRIENVVLVVPVKTKYNFNNRGSLTLEPLTLVPIQTKMIDVDSLTDKECDWLNNYHLTCRDVIGKELQKQGRQEALEWLIRETQPISKQH,soluble
9,MSSAQVNGISKRLIVESPNVKLEDGVLESRFTYRKNHFEHRADGLHVTPKEHDYSFKTVLKPRKTGLLLVGLGGNNGSTAVGSIFANQYAMTWRTKEGHSQANYFGSVTQTATVHLGYDSATQNQIFVPFKDIVPILSPNDLIISGWDISDSNLYEAMGRAKVFEPELQEKLRPFMEPIVPLPSIYYPDFIASNQGDRANNVIPGDNKLEHLEHIRADIRKFKQEHELECVIVLWTANTERYTDVRQGLNATADEIMESIRVNEDEVSPSNIFAVASILEGAHYINGSPQNTLVPGLIELAERHKVFVGGDDFKSGQTKFKSAFVDFLVSSGMKPESIVSYNHLGNNDGKNLSEARQFRSKEISKSSVVDDMVKSNQILFPDAKNPDHCVVIKYVPYVADSKRAMDEYICSIFMGGKQTFVVHNTCEDSLLASPLIYDLAILTELASRVSYKVDDEYKPFHSVLSILSLLLKAPVVPPGTPISNAFMRQFSTLTKLVTALAGFPSDTDMQIEFFTQLPAAKSKSQ,not soluble
10,MTLDECIRLAWKQNPSVRNSVIDIKEARADYMAAVGAFLPRAAVNAETGKRFGRSIDPDTNGYTNETFEEGTVGLDMTLSLFEGFSRIHQVRFRKMNKERSEWALKNRQNELAYQVTDAYYKLILERKLLNLALEQSRLSERYLKQTEAFVELGLKSASDLQEVKARREGDIYRYKSRENTCRLALLHLEQLMNFQPGDTLVIQDTIVEANQLPLLSVPSTETLYAQSLEILPVMRMIDLKRKAARKEYAMAGGTFSPSVYARFTVGSNFYNTVFSARQLRDNIGKYVGIGISFPLLSGLERLTHQRKQKLNLYRLKNEEELEKQQLYTDIEQTLLSLHAGFSEHQQALQQLEAEALVLKESERKWEEGLISVFQLMEARNRFISAKAELVRVRLQVEMMRKLEKYYREGTFL,not soluble
11,ASWSHPQFEKIEGRDTWRYAFEEAMTDVQGVYAQKFKEEIEANSDHEIQLFPYGTLGESADIMEQTQDGILQFVDQSPGFTGSLIPEAQVFFVPYLLPTDQDHLARFFKESKAINDMFKPLYADQGLELLNMFPEGEVAMTTKTPVTTCSDLDEVKFRVMTNPLLVESYKAFGATPTPLPWGEVYGGLQTNVIQGQENPTFFLYSTKIYEVTDYITYAGHNNFTTAVMANKDFYDGLSAEDQQLVQNAALAAYDHTVVYQQQAADTELAKIMEAKPEMQVTVLTDEQRSCFKEAAAEVEAKFIEMTGDSGAAILKQMKADLAATAN,soluble
12,MNRLHRWNWLVLSAALVTLPFTTPTQAAGVSVSQGSSASLSQAELEQMLAPIALYPDSLLSHILIASTYPLELVQAQRWLEDHPKLSVEQVMSRTEDKGWDPSVKALMAFPNVLQKMSEDLDWTQRLGEAFLANEGQVMDGIQSLRQQADKANSLANMDNMAVTRANNQIIIEPVRREVVYVPYYDPRVVYGTWRWGVAYPPVYWQFGGYVGNPYRPSHSYFYWSPGIHISFNYFFSSFHWHRHKVVVIDHHHSHHYRPRERYSVSHGAQPWKHKPEHRRGVAYHHPVVKERYYSDSKYRGRDSHSSGSGQHFTSQYAKSREHQDTRDNRDNQRDDKRHDKDRGNQYSRERTPNLQHTQAELKERRATPMDSSQTHRENYQREHRQKERNDNGRHDNQVRQNQAKTMREQTNDTWQRQYQQREYQSSDQQPRHVETRAQPQRHEARPEVRRPEPQRIEQPRQAQPRQREEVRTRPSESRQHTQCGA,not soluble
13,MRWKRTLQLLDVHCEGEIGRVVTGGAPKIPGNTVAEQLHWMNTDPQGEALRRFLTLEPRGTPMGSVDLLLPPKHPDAHAAFVILQPDQAHASSGSNSICATTALLESGMVEMQEPETVIILETAAGLVKATATCRDGRCEKVKLTMVPSFVHELDVSIDTPEWGRVTMDISYGGIFYALVDVRQIGLTIEKANAAKLVAAGMTLKDLVNREMTVVHPEIPAISGVAYVMFRDVDADGSIRTCTTMWPGRADRSPCGTGNSANLATLYARGKVKVGDEYKSRSIIGSEFDVGLSAVTEVAGRPAVIPTIAGRGFTFGLHQVGLDPFDPLGDGFAMTDVWGPEAGNILEHHHHHH,soluble
14,MAANRVAMEEDITESVTLMVDSVSSSPMTPKTVTVKEDETHHPYAFHVSGPRNVASPNWRDLINSSWKDPNYKRTVMACFIQAAYLLELDRQENRNEQNALAPKWWIPFKYKLSQTLIDERDGSIFGAVLEWDRAAAMADLVVIRPSGAPKAVLALRGTILKSLTMRRDIEDDLRFLAWESLKGSVRFNVALEALQSVATRYGSSNVCVVGHSLGAGFALQVGKSLAKEGLFVDAHLFNPPSISVAMSLRNISEKAGVAWKRLMSMLPPKHEPLIQNSNEGQVSPSNVSSGFRNWVPSFYGSNQKPTVDLRKWVPHLYVNDSDYICCHYTDQDGVAEKREMNNKENNSPVVNTNFQAAAKLFVMSKGKQKFHEAHGLEQWWSDNLELQSAIHSSRLISQQLKSLYSIK,soluble
15,MAQRFTDEVAIVTGSSNGIGRATAILLASEGAKVTITGRNAERLEESRQALLKVGVPSGHINSVVADVTTGAGQDVLIDSTLKKFGKINILINNAGALIVDPEGKTNTSTGVETCLKTFQLNFQSVVEMTQKIRPHLANTHGEIVNVSSVGAGPAAENRFPYYSAAKAALDQYSRNTAIDLIPDGIRVNIVQPGFVATGFTTAASGMSPDASAKMYEGIGANTSCIPAGYCGRPEHLASVIAFLADRKASEYIVGQTIIADGGTTLVRGRNVALATRRAE,not soluble
